The chains are these.
B1: CD33 BRIDGE variant B19 (Fab, V domains shown)
VH: QVQLVQSGAEVKKPGSSVKVSCKASGYTFTDYNMHWVRQAPGQGLEWIGYIYPYNGGTGYNQKFKSKATITADESTNTAYMELSSLRSEDTAVYYCARGRPAMDYWGQGTLVTVSS
VL: DIQMTQSPSSLSASVGDRVTITCRASESVDNYGISFMNWFQQKPGKAPKLLIYAASNQGSGVPSRFSGSGSGTDFTLTISSLQPDDFATYYCQQSKEVPWTFGQGTKVEIKR
notes: Lintuzumab-based Fab bridging molecule
B2: CD33 BRIDGE variant B20 (Fab, V domains shown)
VH: B1 VH
VL: B1 VL
notes: as for B1
B3: CD33 BRIDGE variant B25 (Fab, V domains shown)
VH: B1 VH
VL: B1 VL
notes: as for B1
B4: CD33 BRIDGE variant B15 (Fab)
light: GHNYTTRNILPGLNITSGGGGSEPKSSDKTHTGGGGSDIQMTQSPSSLSASVGDRVTITCRASESVDNYGISFMNWFQQKPGKAPKLLIYAASNQGSGVPSRFSGSGSGTDFTLTISSLQPDDFATYYCQQSKEVPWTFGQGTKVEIKRTVAAPSVFIFPPSDEQLKSGTASVVCLLNNFYPREAKVQWKVDNALQSGNSQESVTEQDSKDSTYSLSSTLTLSKADYEKHKVYACEVTHQGLSSPVTKSFNRGECHHHHHH
heavy: QVQLVQSGAEVKKPGSSVKVSCKASGYTFTDYNMHWVRQAPGQGLEWIGYIYPYNGGTGYNQKFKSKATITADESTNTAYMELSSLRSEDTAVYYCARGRPAMDYWGQGTLVTVSSASTKGPSVFPLAPSSKSTSGGTAALGCLVKDYFPEPVTVSWNSGALTSGVHTFPAVLQSSGLYSLSSVVTVPSSSLGTQTYICNVNHKPSNTKVDKKVEPKSCHHHHHH
notes: as for B1
B5: CD33 BRIDGE variant B17 (Fab)
light: GHNYTTRNILPGLNITSTFHKTSGSGKGSEPKSSDKTHTGGGGSDIQMTQSPSSLSASVGDRVTITCRASESVDNYGISFMNWFQQKPGKAPKLLIYAASNQGSGVPSRFSGSGSGTDFTLTISSLQPDDFATYYCQQSKEVPWTFGQGTKVEIKRTVAAPSVFIFPPSDEQLKSGTASVVCLLNNFYPREAKVQWKVDNALQSGNSQESVTEQDSKDSTYSLSSTLTLSKADYEKHKVYACEVTHQGLSSPVTKSFNRGECHHHHHH
heavy: B4 heavy
notes: as for B1
B6: CD33 BRIDGE variant B23 (Fab)
light: DFPGHNYTTRNILPGLNITSTFHKTSGSGKGSEPKSSDKTHTDIQMTQSPSSLSASVGDRVTITCRASESVDNYGISFMNWFQQKPGKAPKLLIYAASNQGSGVPSRFSGSGSGTDFTLTISSLQPDDFATYYCQQSKEVPWTFGQGTKVEIKRTVAAPSVFIFPPSDEQLKSGTASVVCLLNNFYPREAKVQWKVDNALQSGNSQESVTEQDSKDSTYSLSSTLTLSKADYEKHKVYACEVTHQGLSSPVTKSFNRGECHHHHHH
heavy: B4 heavy
notes: as for B1
B7: CD33 BRIDGE variant B18 (Fab)
light: GHNYTTRNILPGLNITSTFHKTSGSGKGGGGSEPKSSDKTHTGGGGSDIQMTQSPSSLSASVGDRVTITCRASESVDNYGISFMNWFQQKPGKAPKLLIYAASNQGSGVPSRFSGSGSGTDFTLTISSLQPDDFATYYCQQSKEVPWTFGQGTKVEIKRTVAAPSVFIFPPSDEQLKSGTASVVCLLNNFYPREAKVQWKVDNALQSGNSQESVTEQDSKDSTYSLSSTLTLSKADYEKHKVYACEVTHQGLSSPVTKSFNRGECHHHHHH
heavy: B4 heavy
notes: as for B1
B8: CD33 BRIDGE variant B21 (Fab)
light: DFPGHNYTTRNILPGLNITSGGGGSEPKSSDKTHTDIQMTQSPSSLSASVGDRVTITCRASESVDNYGISFMNWFQQKPGKAPKLLIYAASNQGSGVPSRFSGSGSGTDFTLTISSLQPDDFATYYCQQSKEVPWTFGQGTKVEIKRTVAAPSVFIFPPSDEQLKSGTASVVCLLNNFYPREAKVQWKVDNALQSGNSQESVTEQDSKDSTYSLSSTLTLSKADYEKHKVYACEVTHQGLSSPVTKSFNRGECHHHHHH
heavy: B4 heavy
notes: as for B1
B9: CD33 BRIDGE variant B22 (Fab)
light: DFPGHNYTTRNILPGLNITSTFHKTSGSGKEPKSSDKTHTDIQMTQSPSSLSASVGDRVTITCRASESVDNYGISFMNWFQQKPGKAPKLLIYAASNQGSGVPSRFSGSGSGTDFTLTISSLQPDDFATYYCQQSKEVPWTFGQGTKVEIKRTVAAPSVFIFPPSDEQLKSGTASVVCLLNNFYPREAKVQWKVDNALQSGNSQESVTEQDSKDSTYSLSSTLTLSKADYEKHKVYACEVTHQGLSSPVTKSFNRGECHHHHHH
heavy: B4 heavy
notes: as for B1
B10: CD33 BRIDGE variant B16 (Fab)
light: GHNYTTRNILPGLNITSTFHKTSGSGKEPKSSDKTHTGGGGSDIQMTQSPSSLSASVGDRVTITCRASESVDNYGISFMNWFQQKPGKAPKLLIYAASNQGSGVPSRFSGSGSGTDFTLTISSLQPDDFATYYCQQSKEVPWTFGQGTKVEIKRTVAAPSVFIFPPSDEQLKSGTASVVCLLNNFYPREAKVQWKVDNALQSGNSQESVTEQDSKDSTYSLSSTLTLSKADYEKHKVYACEVTHQGLSSPVTKSFNRGECHHHHHH
heavy: B4 heavy
notes: as for B1
B11: CD33 BRIDGE variant B28 (Fab)
light: DFPGHNYTTRNILPGLNITSTFHKTSGSGKEPKSSDKTHTGSDIQMTQSPSSLSASVGDRVTITCRASESVDNYGISFMNWFQQKPGKAPKLLIYAASNQGSGVPSRFSGSGSGTDFTLTISSLQPDDFATYYCQQSKEVPWTFGQGTKVEIKRTVAAPSVFIFPPSDEQLKSGTASVVCLLNNFYPREAKVQWKVDNALQSGNSQESVTEQDSKDSTYSLSSTLTLSKADYEKHKVYACEVTHQGLSSPVTKSFNRGECHHHHHH
heavy: B4 heavy
notes: as for B1

The target of one assay is T1, nfP2X7 CAR 1.
T1 construct: Expressed on T cells with truncated EGFR as marker gene; also called anti-nfP2X7 receptor CAR 1; nfP2X7 targeted CAR on EGFR+ T cells
The assay can be described thus: flow cytometry, nfP2X7 CAR T cells (EGFR+), anti-His-FITC detection. How it is done:
(§1) nfP2X₇ CAR T cells were incubated with different BRiDGE variants at saturating concentrations. […] The MFI intensity correlates with the number of secondary bound antibodies bound to the BRiDGEs that are only detected if they are bound to the CAR T cells. EGFR was used as a marker gene to detect the CAR expression. Thus, the EGFR+ T cell population was defined as the CAR expressing cells and the EGFR− T cell population was defined as the CAR negative subset. MFI: median fluorescence intensity. EGFR: epidermal growth factor receptor. BLItz: Bio-Layer interferometry (BLI) technology using HIS-tag identification tips. HIS-tag MFI Ratio: relative index that is calculated by the testing condition MFI divided by the control MFI, which corresponds to the MFI measured on EGFR+ T cells (defined as CAR positive cells) divided by the MFI measured on the EGFR− T cells (defined as CAR negative cells). […] The higher the MFIR, the stronger the binding.
(In general: Flow cytometry measures light scatter and fluorescence of single cells or particles in a stream.)
As for B1, the “MFI HisTag FITC in EGFR+ Population” value came out at 1.29.

For the molecule B2, the “MFI HisTag FITC in EGFR+ Population” value turned out to be 1.29.

As for B3, the “MFI HisTag FITC in EGFR+ Population” value stood at 1.82.

With B4, the “MFI HisTag FITC in EGFR+ Population” value came to 1.5.

Consider B5, for which the “MFI HisTag FITC in EGFR+ Population” value turned out to be 1.58.

As for B6, the “MFI HisTag FITC in EGFR+ Population” value worked out at 1.71.

Turning to B7, the “MFI HisTag FITC in EGFR+ Population” value came to 1.79.

Consider B8, for which the “MFI HisTag FITC in EGFR+ Population” value amounted to 1.14.

In the case of B9, the “MFI HisTag FITC in EGFR+ Population” value was found to be 1.44.

With B10, the “MFI HisTag FITC in EGFR+ Population” value stood at 1.83.

For the molecule B11, the “MFI HisTag FITC in EGFR+ Population” value stood at 1.58.

In a further assay the target is T2, CD33 (UniProt P20138 18-364, limits assumed).
T2 construct: whole, on cells; also called Siglec-3; CD33 on MOLM-13 cells
T2 sequence (P20138 18-364 limits assumed): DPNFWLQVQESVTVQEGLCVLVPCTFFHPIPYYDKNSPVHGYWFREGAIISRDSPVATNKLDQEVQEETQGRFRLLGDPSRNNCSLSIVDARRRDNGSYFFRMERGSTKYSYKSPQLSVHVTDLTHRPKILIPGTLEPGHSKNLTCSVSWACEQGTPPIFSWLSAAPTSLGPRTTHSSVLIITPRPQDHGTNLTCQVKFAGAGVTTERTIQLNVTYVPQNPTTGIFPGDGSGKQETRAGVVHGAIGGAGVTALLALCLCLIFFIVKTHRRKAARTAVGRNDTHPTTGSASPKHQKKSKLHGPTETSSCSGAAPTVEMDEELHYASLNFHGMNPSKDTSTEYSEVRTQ
The assay can be described thus: flow cytometry, MOLM-13 cells, anti-His-FITC detection, ratio to no bridge. On the procedure:
(§2) MOLM-13 cells were incubated with different CD33 BRIDGE variants at saturating concentrations. […] The MFI intensity correlates with the number of secondary antibodies bound to the CD33 BRIDGE variants that are only detected if they are bound to the MOLM-13 cells. MFI: median fluorescence intensity. BLItz: Bio-Layer interferometry (BLI) technology using HIS-tag identification tips. […] The higher the MFIR, the stronger the binding.
Consider B1, for which the “MFIR HisTag FITC” value stood at 7.99.

With B2, the “MFIR HisTag FITC” value is 8.46.

B3: the “MFIR HisTag FITC” value amounted to 10.9.

For B4, the “MFIR HisTag FITC” value came to 11.4.

Consider B5, for which the “MFIR HisTag FITC” value turned out to be 11.

As to B6, the “MFIR HisTag FITC” value is 10.2.

As to B7, the “MFIR HisTag FITC” value is 8.64.

Take B8: the “MFIR HisTag FITC” value came to 9.01.

Consider B9, for which the “MFIR HisTag FITC” value is 6.88.

With B10, the “MFIR HisTag FITC” value stood at 9.36.

With B11, the “MFIR HisTag FITC” value came to 9.45.

Another assay deals with T1, nfP2X7 CAR 1. The assay can be described thus: flow cytometry, CAR T cells, anti-His-FITC, EGFR+ MFI over background 0.4. How it is done:
as §1
On to B1, for which the “HisTag MFI Ratio (background 0.4)” value worked out at 3.2.

With B2, the “HisTag MFI Ratio (background 0.4)” value is 3.2.

In the case of B3, the “HisTag MFI Ratio (background 0.4)” value stood at 4.6.

B4: the “HisTag MFI Ratio (background 0.4)” value is 3.8.

Turning to B5, the “HisTag MFI Ratio (background 0.4)” value was found to be 4.

With B6, the “HisTag MFI Ratio (background 0.4)” value was 4.3.

Take B7: the “HisTag MFI Ratio (background 0.4)” value stood at 4.5.

For the molecule B8, the “HisTag MFI Ratio (background 0.4)” value stood at 2.9.

For B9, the “HisTag MFI Ratio (background 0.4)” value was 3.6.

As for B10, the “HisTag MFI Ratio (background 0.4)” value worked out at 4.6.

Turning to B11, the “HisTag MFI Ratio (background 0.4)” value amounted to 4.

The target in the next assay is T2, CD33. The assay can be described thus: flow cytometry, MOLM-13 cells, anti-His-FITC detection. How it is done: as §2
On to B1, for which the “MFI HisTag FITC” value turned out to be 5.35.

For B2, the “MFI HisTag FITC” value turned out to be 5.67.

As to B3, the “MFI HisTag FITC” value worked out at 7.29.

In the case of B4, the “MFI HisTag FITC” value was found to be 7.64.

As to B5, the “MFI HisTag FITC” value was 7.36.

B6: the “MFI HisTag FITC” value amounted to 6.82.

Consider B7, for which the “MFI HisTag FITC” value was determined as 5.79.

With B8, the “MFI HisTag FITC” value came out at 6.04.

For B9, the “MFI HisTag FITC” value came out at 4.61.

Regarding B10, the “MFI HisTag FITC” value is 6.27.

Take B11: the “MFI HisTag FITC” value was 6.33.

For a further assay, the target named is T1, nfP2X7 CAR 1. Kind of assay: flow cytometry, CAR T cells, anti-His-FITC, EGFR+ over EGFR- cells. On the procedure:
as §1
With B1, the “HisTag MFI Ratio of EGFR+/EGFR-” value amounted to 2.9.

On to B2, for which the “HisTag MFI Ratio of EGFR+/EGFR-” value stood at 2.9.

With B3, the “HisTag MFI Ratio of EGFR+/EGFR-” value stood at 3.4.

Take B4: the “HisTag MFI Ratio of EGFR+/EGFR-” value came out at 3.1.

Regarding B5, the “HisTag MFI Ratio of EGFR+/EGFR-” value was found to be 3.2.

For B6, the “HisTag MFI Ratio of EGFR+/EGFR-” value was determined as 3.4.

As for B7, the “HisTag MFI Ratio of EGFR+/EGFR-” value was found to be 3.4.

For B8, the “HisTag MFI Ratio of EGFR+/EGFR-” value came to 2.8.

Consider B9, for which the “HisTag MFI Ratio of EGFR+/EGFR-” value worked out at 3.1.

Consider B10, for which the “HisTag MFI Ratio of EGFR+/EGFR-” value was found to be 3.4.

For the molecule B11, the “HisTag MFI Ratio of EGFR+/EGFR-” value was 3.2.

The values above are taken from patent publication US20250281611A1 (BIOSCEPTRE AUST, published 2025).
